Experimental data as given in patent publication US20240270846A1 (published 2024).
Substitutions are numbered along the chain they refer to. Names may count otherwise. Values belong to the binder of their own block, whether it stands above or below them.

Molecular target: T1, CD3 epsilon homodimer protein (UniProt P07766 23-126)
T1 construct: Immobilized on Sensor chip CM4 by amine coupling; construct not described; also called CD3 (CD3 epsilon)
Assay: SPR Biacore T200, CD3 epsilon homodimer on CM4 chip, antibody as analyte;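 note: Amine-coupled CD3 epsilon homodimer, run at 25 °C in HBS-EP+ buffer, ratio is bound amount of each single-residue H chain variant over that of the parent antibody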

T1 sequence (P07766 23-126): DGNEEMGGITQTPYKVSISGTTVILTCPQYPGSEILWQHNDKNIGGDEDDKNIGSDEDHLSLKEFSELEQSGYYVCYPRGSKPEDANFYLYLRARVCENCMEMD

B1: CE115HA000 D101P one-arm antibody (antibody, human IgG1, kappa, L234A L235A, N297A, name in Kabat numbering)
heavy: QVQLVESGGGVVQPGRSLRLSCAASGFTFSNAWMHWVRQAPGKGLEWVAQIKAKSNNYATYYAESVKGRFTISRDDSKNSLYLQMNSLKTEDTAVYYCRYVHYGAYYGVPAWGQGTTVTVSSASTKGPSVFPLAPSSKSTSGGTAALGCLVKDYFPEPVTVSWNSGALTSGVHTFPAVLQSSGLYSLSSVVTVPSSSLGTQTYICNVNHKPSNTKVDKKVEPKSCDKTHTCPPCPAPEAAGGPSVFLFPPKPKDTLMISRTPEVTCVVVDVSHEDPEVKFNWYVDGVEVHNAKTKPREEQYASTYRVVSVLTVLHQDWLNGKEYKCKVSNKALPAPIEKTISKAKGQPREPQVYTLPPSRCELTKNQVSLSCAVKGFYPSDIAVEWESNGQPENNYKTTPPVLDSDGSFFLVSKLTVDKSRWQQGNVFSCSVMHEALHNHYTQKSLSLSPDYKDDDDK
chain: EPKSSDKTHTCPPCPAPELLGGPSVFLFPPKPKDTLMISRTPEVTCVVVDVSHEDPEVKFNWYVDGVEVHNAKTKPREEQYNSTYRVVSVLTVLHQDWLNGKEYKCKVSNKALPAPIEKTISKAKGQPREPQVCTLPPSRDELTKNQVSLWCLVKGFYPSDIAVEWESNGQPENNYKTTPPVLDSDGSFFLYSKLTVDKSRWQQGNVFSCSVMHEALHNRYTQKSLSLSP
light: DIVMTQSPLSLPVTPGEPASISCRSSQSLVHSNRNTYLHWYQQKPGQAPRLLIYKVSNRFSGVPDRFSGSGSGTDFTLKISRVEAEDVGVYYCGQGTQVPYTFGQGTKLEIKRTVAAPSVFIFPPSDEQLKSGTASVVCLLNNFYPREAKVQWKVDNALQSGNSQESVTEQDSKDSTYSLSSTLTLSKADYEKHKVYACEVTHQGLSSPVTKSFNRGEC
notes: one-arm antibody (one Fab)
- ratio of amounts bound (Y/X vs CE115HA000): 0.2

B5: CE115HA000 G98K one-arm antibody (antibody, human IgG1, kappa, L234A L235A, N297A, name in Kabat numbering)
heavy: B1 heavy with G104K, P110D
chain: B1 chain
light: B1 light
notes: one-arm antibody (one Fab)
- ratio of amounts bound (Y/X vs CE115HA000): 2.83

B6: CE115HA000 E61P one-arm antibody (antibody, human IgG1, kappa, L234A L235A, N297A, name in Kabat numbering)
heavy: B1 heavy with E64P, P110D
chain: B1 chain
light: B1 light
notes: one-arm antibody (one Fab)
- ratio of amounts bound (Y/X vs CE115HA000): 1.07

B13: CE115HA000 D101R one-arm antibody (antibody, human IgG1, kappa, L234A L235A, N297A, name in Kabat numbering)
heavy: B1 heavy with P110R
chain: B1 chain
light: B1 light
notes: one-arm antibody (one Fab)
- ratio of amounts bound (Y/X vs CE115HA000): 0.24

B14: CE115HA000 G98H one-arm antibody (antibody, human IgG1, kappa, L234A L235A, N297A, name in Kabat numbering)
heavy: B1 heavy with G104H, P110D
chain: B1 chain
light: B1 light
notes: one-arm antibody (one Fab)
- ratio of amounts bound (Y/X vs CE115HA000): 1.58

B15: CE115HA000 E61Q one-arm antibody (antibody, human IgG1, kappa, L234A L235A, N297A, name in Kabat numbering)
heavy: B1 heavy with E64Q, P110D
chain: B1 chain
light: B1 light
notes: one-arm antibody (one Fab)
- ratio of amounts bound (Y/X vs CE115HA000): 1.07

B16: CE115HA000 G98D one-arm antibody (antibody, human IgG1, kappa, L234A L235A, N297A, name in Kabat numbering)
heavy: B1 heavy with G104D, P110D
chain: B1 chain
light: B1 light
notes: one-arm antibody (one Fab)
- ratio of amounts bound (Y/X vs CE115HA000): 0.26

B19: CE115HA000 D101T one-arm antibody (antibody, human IgG1, kappa, L234A L235A, N297A, name in Kabat numbering)
heavy: B1 heavy with P110T
chain: B1 chain
light: B1 light
notes: one-arm antibody (one Fab)
- ratio of amounts bound (Y/X vs CE115HA000): 0.79

B20: CE115HA000 D101V one-arm antibody (antibody, human IgG1, kappa, L234A L235A, N297A, name in Kabat numbering)
heavy: B1 heavy with P110V
chain: B1 chain
light: B1 light
notes: one-arm antibody (one Fab)
- ratio of amounts bound (Y/X vs CE115HA000): 1.33

B21: CE115HA000 D101Y one-arm antibody (antibody, human IgG1, kappa, L234A L235A, N297A, name in Kabat numbering)
heavy: B1 heavy with P110Y
chain: B1 chain
light: B1 light
notes: one-arm antibody (one Fab)
- ratio of amounts bound (Y/X vs CE115HA000): 0.49

B25: CE115HA000 D101S one-arm antibody (antibody, human IgG1, kappa, L234A L235A, N297A, name in Kabat numbering)
heavy: B1 heavy with P110S
chain: B1 chain
light: B1 light
notes: one-arm antibody (one Fab)
- ratio of amounts bound (Y/X vs CE115HA000): 1.16

B28: CE115HA000 D101Q one-arm antibody (antibody, human IgG1, kappa, L234A L235A, N297A, name in Kabat numbering)
heavy: B1 heavy with P110Q
chain: B1 chain
light: B1 light
notes: one-arm antibody (one Fab)
- ratio of amounts bound (Y/X vs CE115HA000): 2.35

B29: CE115HA000 G98A one-arm antibody (antibody, human IgG1, kappa, L234A L235A, N297A, name in Kabat numbering)
heavy: B1 heavy with G104A, P110D
chain: B1 chain
light: B1 light
notes: one-arm antibody (one Fab)
- ratio of amounts bound (Y/X vs CE115HA000): 1.1

B33: CE115HA000 G98P one-arm antibody (antibody, human IgG1, kappa, L234A L235A, N297A, name in Kabat numbering)
heavy: B1 heavy with G104P, P110D
chain: B1 chain
light: B1 light
notes: one-arm antibody (one Fab)
- ratio of amounts bound (Y/X vs CE115HA000): 1.02

Other lines, results leading:

- ratio of amounts bound (Y/X vs CE115HA000): 2.96
B2: CE115HA000 G98R one-arm antibody (antibody, human IgG1, kappa, L234A L235A, N297A, name in Kabat numbering)
heavy: B1 heavy with G104R, P110D
chain: B1 chain
light: B1 light
notes: one-arm antibody (one Fab)

- ratio of amounts bound (Y/X vs CE115HA000): 0.26
B3: CE115HA000 G100bE one-arm antibody (antibody, human IgG1, kappa, L234A L235A, N297A, name in Kabat numbering)
heavy: B1 heavy with G108E, P110D
chain: B1 chain
light: B1 light
notes: one-arm antibody (one Fab)

- ratio of amounts bound (Y/X vs CE115HA000): 1.01
B4: CE115HA000 G98S one-arm antibody (antibody, human IgG1, kappa, L234A L235A, N297A, name in Kabat numbering)
heavy: B1 heavy with G104S, P110D
chain: B1 chain
light: B1 light
notes: one-arm antibody (one Fab)

- ratio of amounts bound (Y/X vs CE115HA000): 0.35
B7: CE115HA000 H96K one-arm antibody (antibody, human IgG1, kappa, L234A L235A, N297A, name in Kabat numbering)
heavy: B1 heavy with H102K, P110D
chain: B1 chain
light: B1 light
notes: one-arm antibody (one Fab)

- ratio of amounts bound (Y/X vs CE115HA000): 0.14
B8: CE115HA000 H96L one-arm antibody (antibody, human IgG1, kappa, L234A L235A, N297A, name in Kabat numbering)
heavy: B1 heavy with H102L, P110D
chain: B1 chain
light: B1 light
notes: one-arm antibody (one Fab)

- ratio of amounts bound (Y/X vs CE115HA000): 0.12
B9: CE115HA000 H96P one-arm antibody (antibody, human IgG1, kappa, L234A L235A, N297A, name in Kabat numbering)
heavy: B1 heavy with H102P, P110D
chain: B1 chain
light: B1 light
notes: one-arm antibody (one Fab)

- ratio of amounts bound (Y/X vs CE115HA000): 0.42
B10: CE115HA000 H96Q one-arm antibody (antibody, human IgG1, kappa, L234A L235A, N297A, name in Kabat numbering)
heavy: B1 heavy with H102Q, P110D
chain: B1 chain
light: B1 light
notes: one-arm antibody (one Fab)

- ratio of amounts bound (Y/X vs CE115HA000): 0.43
B11: CE115HA000 H96G one-arm antibody (antibody, human IgG1, kappa, L234A L235A, N297A, name in Kabat numbering)
heavy: B1 heavy with H102G, P110D
chain: B1 chain
light: B1 light
notes: one-arm antibody (one Fab)

- ratio of amounts bound (Y/X vs CE115HA000): 0.52
B12: CE115HA000 G100bS one-arm antibody (antibody, human IgG1, kappa, L234A L235A, N297A, name in Kabat numbering)
heavy: B1 heavy with G108S, P110D
chain: B1 chain
light: B1 light
notes: one-arm antibody (one Fab)

- ratio of amounts bound (Y/X vs CE115HA000): 0.17
B17: CE115HA000 H96Y one-arm antibody (antibody, human IgG1, kappa, L234A L235A, N297A, name in Kabat numbering)
heavy: B1 heavy with H102Y, P110D
chain: B1 chain
light: B1 light
notes: one-arm antibody (one Fab)

- ratio of amounts bound (Y/X vs CE115HA000): 1.22
B18: CE115HA000 G98Q one-arm antibody (antibody, human IgG1, kappa, L234A L235A, N297A, name in Kabat numbering)
heavy: B1 heavy with G104Q, P110D
chain: B1 chain
light: B1 light
notes: one-arm antibody (one Fab)

- ratio of amounts bound (Y/X vs CE115HA000): 0.27
B22: CE115HA000 G100bD one-arm antibody (antibody, human IgG1, kappa, L234A L235A, N297A, name in Kabat numbering)
heavy: B1 heavy with G108D, P110D
chain: B1 chain
light: B1 light
notes: one-arm antibody (one Fab)

- ratio of amounts bound (Y/X vs CE115HA000): 1.05
B23: CE115HA000 G98T one-arm antibody (antibody, human IgG1, kappa, L234A L235A, N297A, name in Kabat numbering)
heavy: B1 heavy with G104T, P110D
chain: B1 chain
light: B1 light
notes: one-arm antibody (one Fab)

- ratio of amounts bound (Y/X vs CE115HA000): 0.27
B24: CE115HA000 G100bL one-arm antibody (antibody, human IgG1, kappa, L234A L235A, N297A, name in Kabat numbering)
heavy: B1 heavy with G108L, P110D
chain: B1 chain
light: B1 light
notes: one-arm antibody (one Fab)

- ratio of amounts bound (Y/X vs CE115HA000): 0.23
B26: CE115HA000 G100bY one-arm antibody (antibody, human IgG1, kappa, L234A L235A, N297A, name in Kabat numbering)
heavy: B1 heavy with G108Y, P110D
chain: B1 chain
light: B1 light
notes: one-arm antibody (one Fab)

- ratio of amounts bound (Y/X vs CE115HA000): 0.3
B27: CE115HA000 G100bF one-arm antibody (antibody, human IgG1, kappa, L234A L235A, N297A, name in Kabat numbering)
heavy: B1 heavy with G108F, P110D
chain: B1 chain
light: B1 light
notes: one-arm antibody (one Fab)

- ratio of amounts bound (Y/X vs CE115HA000): 0.44
B30: CE115HA000 H96S one-arm antibody (antibody, human IgG1, kappa, L234A L235A, N297A, name in Kabat numbering)
heavy: B1 heavy with H102S, P110D
chain: B1 chain
light: B1 light
notes: one-arm antibody (one Fab)

- ratio of amounts bound (Y/X vs CE115HA000): 0.46
B31: CE115HA000 H96R one-arm antibody (antibody, human IgG1, kappa, L234A L235A, N297A, name in Kabat numbering)
heavy: B1 heavy with H102R, P110D
chain: B1 chain
light: B1 light
notes: one-arm antibody (one Fab)

- ratio of amounts bound (Y/X vs CE115HA000): 2.22
B32: CE115HA000 G98Y one-arm antibody (antibody, human IgG1, kappa, L234A L235A, N297A, name in Kabat numbering)
heavy: B1 heavy with G104Y, P110D
chain: B1 chain
light: B1 light
notes: one-arm antibody (one Fab)
